Laboratory results: patent US20210380703A1 (RIGEL PHARMACEUTICALS, published 2021)

Columns and labels:
[1] = target: T1, biotinylated goat anti-human kappa light chain; experiment: ELISA, positive control
T1 construct: positive control of the ELISA
Outline: (§1)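 mAb binding by ELISA; antigens: hu ACVR2A, mu ACVR2A; pos ctrl biotinylated goat anti-hu kappa LC; neg ctrl hu Fc.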

human ACVR2A = target: T2, human ACVR2A (human, UniProt P27037 20-135, limits assumed); experiment: ELISA
T2 construct: coated antigen of the initial ELISA; also called activin receptor, type II A
Outline: as §1

mouse ACVR2A = target: T3, mouse ACVR2A (mouse, UniProt P27038 20-135, limits assumed); experiment: ELISA
T3 construct: coated antigen of the initial ELISA
Outline: as §1
Note: test concentration or dose not given here.

T2 sequence (P27037 20-135 limits assumed): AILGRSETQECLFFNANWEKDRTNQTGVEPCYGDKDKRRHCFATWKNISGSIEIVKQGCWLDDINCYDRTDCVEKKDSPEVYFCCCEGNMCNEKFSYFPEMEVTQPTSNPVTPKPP
T3 sequence (P27038 20-135 limits assumed): as the sequence (P27037 20-135 limits assumed) above, with K20R, V73I counted along it

optical density [1] [OD] | optical density (human ACVR2A) [OD] | optical density (mouse ACVR2A) [OD] | Binder
3.3 | 3.66 | 3.61 | 373_B07 (antibody, V domains shown, Group III) VH: EVQLLESGGGLVQPGGSLRLSCAASGFTFDSYSMNWVRQAPGKGLEWVSGINYNGGYTSYADSVKGRFTISRDNSKNTLYLQMNSLRAEDTAVYYCARGANWHDTALDYWGQGTLVTVSS VL: DIQMTQSPSSLSASVGDRVTITCRASQSILTYVNWYQQKPGKAPKLVIYAATSRASGVPSRFSGSGSGTDFTLTISSLQPEDFATYYCQQSYELPLTFGGGTKVEIK
3.3 | 3.57 | 3.58 | 373_C07 (antibody, V domains shown, Group III) VH: EVQLLESGGGLVQPGGSLRLSCAASGFTFDSYSMNWVRQAPGKGLEWVAGINYNSGYTSYADSVKGRFTISRDNSKNTLYLQMNSLRAEDTAVYYCARGANWHDTHLDYWGQGTLVTVSS VL: DIQMTQSPSSLSASVGDRVTITCRASQSILTYLNWYQQKPGKAPKLVIYAATSRASGVPSRFSGSGSGTDFTLTISSLQPEDFATYYCQQSYETPLTFGGGTKVEIK
3.23 | 3.65 | 3.65 | 373_C10 (antibody, V domains shown, Group III) VH: EVQLLESGGGLVQPGGSLRLSCAASGFTFSSYSMNWVRQAPGKGLEWVAGINYNGGYTSYADSVKGRFTISRDNSKNTLYLQMNSLRAEDTAVYYCARGANWHDTALDYWGQGTLVTVSS VL: DIQMTQSPSSLSASVGDRVTITCRASQSILTYVNWYQQKPGKAPKLLIYAATSRASGVPSRFSGSGSGTDFTLTISSLQPEDFATYYCQQSYDNPLTFGGGTKVEIK
3.3 | 3.69 | 3.65 | 373_C03 (antibody, V domains shown, Group III) VH: EVQLLESGGGLVQPGGSLRLSCAASGFTFSSYSMNWVRQAPGKGLEWVSGINYNGGYKSYADSVKGRFTISRDNSKNTLYLQMNSLRAEDTAVYYCARGANWHDTALDYWGQGTLVTVSS VL: DIQMTQSPSSLSASVGDRVTITCRASQSIVTYLNWYQQKPGKAPKLVIYAATSRASGVPSRFSGSGSGTDFTLTISSLQPEDFATYYCQQSYDSPLTFGGGTKVEIK
3.18 | 3.75 | 3.69 | 373_D03 (antibody, V domains shown, Group III) VH: EVQLLESGGGLVQPGGSLRLSCAASGFTFSSYSMNWVRQAPGKGLEWVSGINYNGGYTSYADSVKGRFTISRDNSKNTLYLQMNSLRAEDTAVYYCARGANWHDTALDYWGQGTLVTVSS VL: DIQMTQSPSSLSASVGDRVTITCRASQSIVSYLNWYQQKPGKAPKLLIYAATSLASGVPSRFSGSGSGTDFTLTISSLQPEDFATYYCQQSYDTPLTFGGGTKVEIK

More lines, now with the values behind:

Binder | optical density [1] [OD] | optical density (human ACVR2A) [OD] | optical density (mouse ACVR2A) [OD]
372_E01 (antibody, V domains shown, Group III) VH: EVQLLESGGGLVQPGGSLRLSCAASGFTFDDYSMNWVRQAPGKGLEWVSGINYNGGYKGYADSVKGRFTISRDNSKNTLYLQMNSLRAEDTAVYYCARGANWHDTALDYWGQGTLVTVSS VL: DIQMTQSPSSLSASVGDRVTITCRASQSIVSYLNWYQQKPGKAPKLVIYAATSRHSGVPSRFSGSGSGTDFTLTISSLQPEDFATYYCQQSYDSPLTFGGGTKVEIK | 3.6 | 3.34 | 3.34
373_A01 (antibody, V domains shown, Group III) VH: EVQLLESGGGLVQPGGSLRLSCAASGFTFSSYGMNWVRQAPGKGLEWVSNINYNGGYTGYADSVKGRFTISRDNSKNTLYLQMNSLRAEDTAVYYCARGANWHDTHLDYWGQGTLVTVSS VL: DIQMTQSPSSLSASVGDRVTITCRASQSIVTYLNWYQQKPGKAPKLVIYATTSRASGVPSRFSGSGSGTDFTLTISSLQPEDFATYYCQQSYNLPLTFGGGTKVEIK | 2.95 | 3.18 | 3.48
373_A12 (antibody, V domains shown, Group III) VH: EVQLLESGGGLVQPGGSLRLSCAASGFTFSSYSMNWVRQAPGKGLEWVSSINYNGGYTSYADSVKGRFTISRDNSKNTLYLQMNSLRAEDTAVYYCARGANWHDTALDYWGQGTLVTVSS VL: DIQMTQSPSSLSASVGDRVTITCRASQSILTYLNWYQQKPGKAPKLVIYAATSRASGVPSRFSGSGSGTDFTLTISSLQPEDFATYYCQQSYDTPLTFGGGTKVEIK | 3.09 | 3.59 | 3.31
372_G12 (antibody, V domains shown, Group III) VH: EVQLLESGGGLVQPGGSLRLSCAASGFTFDSYSMNWVRQAPGKGLEWVAGINYNGGYTGYADSVKGRFTISRDNSKNTLYLQMNSLRAEDTAVYYCARGANWHDTHLDYWGQGTLVTVSS VL: DIQMTQSPSSLSASVGDRVTITCRASQSILTYLNWYQQKPGKAPKLVIYAATSRHSGVPSRFSGSGSGTDFTLTISSLQPEDFATYYCQQSYDSPLTFGGGTKVEIK | 3.5 | 2.41 | 2.73
373_A11 (antibody, V domains shown, Group III) VH: EVQLLESGGGLVQPGGSLRLSCAASGFTFSNYGMNWVRQAPGKGLEWVANINYNGGYTGYADSVKGRFTISRDNSKNTLYLQMNSLRAEDTAVYYCARGANWHDTALDYWGQGTLVTVSS VL: DIQMTQSPSSLSASVGDRVTITCRASQSILTYLNWYQQKPGKAPKLLIYAATSRASGVPSRFSGSGSGTDFTLTISSLQPEDFATYYCQQSYDLPLTFGGGTKVEIK | 3.09 | 3.76 | 3.68
373_A03 (antibody, V domains shown, Group III) VH: EVQLLESGGGLVQPGGSLRLSCAASGFTFSDYSMNWVRQAPGKGLEWVANINYNGGYTGYADSVKGRFTISRDNSKNTLYLQMNSLRAEDTAVYYCARGANWHDTALDYWGQGTLVTVSS VL: DIQMTQSPSSLSASVGDRVTITCRASQSILSYLNWYQQKPGKAPKLVIYAATSRASGVPSRFSGSGSGTDFTLTISSLQPEDFATYYCQQSYDNPLTFGGGTKVEIK | 3.08 | 3.65 | 3.63
373_A09 (antibody, V domains shown, Group III) VH: EVQLLESGGGLVQPGGSLRLSCAASGFTFDSYSMNWVRQAPGKGLEWVAGINYNGGYTSYADSVKGRFTISRDNSKNTLYLQMNSLRAEDTAVYYCARGANWHDTALDYWGQGTLVTVSS VL: DIQMTQSPSSLSASVGDRVTITCRASQSILTYLNWYQQKPGKAPKLLIYAATSLASGVPSRFSGSGSGTDFTLTISSLQPEDFATYYCQQSYDTPLTFGGGTKVEIK | 3.11 | 3.66 | 3.62
373_A05 (antibody, V domains shown, Group III) VH: EVQLLESGGGLVQPGGSLRLSCAASGFTFSDYSMNWVRQAPGKGLEWVSGINYNSGYKSYADSVKGRFTISRDNSKNTLYLQMNSLRAEDTAVYYCARGANWHDTHLDYWGQGTLVTVSS VL: DIQMTQSPSSLSASVGDRVTITCRASQSILSYVNWYQQKPGKAPKLVIYAATSRHSGVPSRFSGSGSGTDFTLTISSLQPEDFATYYCQQSYESPLTFGGGTKVEIK | 3.03 | 3.45 | 3.42
373_B05 (antibody, V domains shown, Group III) VH: EVQLLESGGGLVQPGGSLRLSCAASGFTFSDYSMNWVRQAPGKGLEWVSNINYNGGYKSYADSVKGRFTISRDNSKNTLYLQMNSLRAEDTAVYYCARGANWHDTALDYWGQGTLVTVSS VL: DIQMTQSPSSLSASVGDRVTITCRASQSIVTYLNWYQQKPGKAPKLVIYAATSRASGVPSRFSGSGSGTDFTLTISSLQPEDFATYYCQQSYSNPLTFGGGTKVEIK | 3.23 | 3.59 | 3.53
